67 sequences from the supplement of paper PMC10724198 can be followed below.

For this data set, the system named is Saccharomyces cerevisiae. The data set is described as follows: protein stability index of tFT-peptide fusion (C-terminal peptide) (PSI (0-1 scale)); higher = more stable (slower turnover). The settings on record: temperature: 30 C. The protocol: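 MPS profiling in S. cerevisiae of the yeast C-terminome library: the last 12 aa of each annotated ORF are fused to the C-terminus of a sfGFP-mCherry timer, after a GGGS linker. Cells are FACS-sorted into 8 mCherry/sfGFP bins and deep-sequenced. PSI runs from 0 (unstable) to 1 (stable); wild type and das1Δ backgrounds, two technical replicates each.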

Setting [1] is: genetic background: das1 deletion.

± gives the standard deviation of the averaged measurements.

As to EHDKSPLSRKRQ [SFI1 C-terminal 12 aa], the protein stability index under setting [1] turned out to be 0.708 ± 0.015 and the protein stability index (genetic background: wild type) was found to be 0.703 ± 0.035.

As to EHRMLKLILNSG [NTO1 C-terminal 12 aa], the protein stability index by setting is: under setting [1], 0.694 ± 0.017; (genetic background: wild type) 0.644 ± 0.013.

As to EIKEMLVTLINK [SRL2 C-terminal 12 aa], the protein stability index is, setting by setting: under setting [1], 0.6725 ± 0.002; (genetic background: wild type) 0.652 ± 0.028.

For the sequence EIVGRYVVETSK [ADH5 C-terminal 12 aa], the protein stability index reads like this: under setting [1], 0.678 ± 0.028; (genetic background: wild type) 0.6821 ± 0.0047.

In the case of EKCSYYFLSRAH [YNL017C C-terminal 12 aa], the protein stability index came out at 0.6866 ± 0.0041 under setting [1] and 0.66 ± 0.023 (genetic background: wild type).

EKGIFAGDINSD [COX12 C-terminal 12 aa] showed a protein stability index under setting [1] of 0.7005 ± 0.0047 and a protein stability index (genetic background: wild type) of 0.726 ± 0.029.

Sequence EKKDTEGDVDMD [SSE1 C-terminal 12 aa] yielded a protein stability index under setting [1] of 0.678 ± 0.0095 and a protein stability index (genetic background: wild type) of 0.666 ± 0.011.

“EKKRVLNAVCGL [YLR412C-A C-terminal 12 aa]”: the protein stability index by setting is: under setting [1], 0.69 ± 0.016; (genetic background: wild type) 0.658 ± 0.021.

Consider EKPPKEEPESDI [TIM54 C-terminal 12 aa], for which the protein stability index runs as follows: under setting [1], 0.711 ± 0.032; (genetic background: wild type) 0.666 ± 0.0042.

Consider EKVRCIKKYQSW [APD1 C-terminal 12 aa], for which the protein stability index reads like this: under setting [1], 0.726 ± 0.0064; (genetic background: wild type) 0.727 ± 0.034.

For the sequence ELPNGKVIYSRK [ERJ5 C-terminal 12 aa], the protein stability index is, setting by setting: under setting [1], 0.687 ± 0.067; (genetic background: wild type) 0.745 ± 0.025.

For ELTSSDDCKDFI [YDR124W C-terminal 12 aa], the protein stability index came to 0.7025 ± 0.0028 under setting [1] and 0.652 ± 0.034 (genetic background: wild type).

For EMLGDKVNKKGI [SOK1 C-terminal 12 aa], the protein stability index reads like this: under setting [1], 0.727 ± 0.0085; (genetic background: wild type) 0.67 ± 0.012.

As to EMNNIIAASRRH [RPL36A C-terminal 12 aa], the protein stability index under setting [1] came out at 0.701 ± 0.0077 and the protein stability index (genetic background: wild type) was 0.713 ± 0.048.

On to ENAEKQRTLKKN [RIA1 C-terminal 12 aa], for which the protein stability index reads like this: under setting [1], 0.6927 ± 0.00075; (genetic background: wild type) 0.71 ± 0.045.

For ENAHMQSAESCN [YLR236C C-terminal 12 aa], the protein stability index runs as follows: under setting [1], 0.682 ± 0.011; (genetic background: wild type) 0.717 ± 0.074.

As for ENASQLPHPSQK [ZIM17 C-terminal 12 aa], the protein stability index by setting is: under setting [1], 0.698 ± 0.024; (genetic background: wild type) 0.691 ± 0.021.

As to ENDPWKVVRLAP [PDX3 C-terminal 12 aa], the protein stability index reads like this: under setting [1], 0.711 ± 0.019; (genetic background: wild type) 0.715 ± 0.011.

As to ENLVKQEAINGS [YAF9 C-terminal 12 aa], the protein stability index was 0.6823 ± 0.0044 under setting [1] and 0.6834 ± 0.0042 (genetic background: wild type).

ENVDSPRKSNQL [SLM2 C-terminal 12 aa]: the protein stability index turned out to be 0.69 ± 0.018 under setting [1] and 0.678 ± 0.014 (genetic background: wild type).

Turning to EPFGPKMSTVQV [YHB1 C-terminal 12 aa], the protein stability index is, setting by setting: under setting [1], 0.6732 ± 0.0032; (genetic background: wild type) 0.663 ± 0.0085.

EQLEEEFVRQEH [OSW7 C-terminal 12 aa]: the protein stability index came out at 0.7319 ± 0.00083 under setting [1] and 0.7301 ± 0.0026 (genetic background: wild type).

Turning to EQLEQDDGRKGG [LSM12 C-terminal 12 aa], the protein stability index reads like this: under setting [1], 0.682 ± 0.024; (genetic background: wild type) 0.669 ± 0.023.

As for EQNAALGQGLGR [TIM9 C-terminal 12 aa], the protein stability index was 0.70792 ± 0.00034 under setting [1] and 0.692 ± 0.0086 (genetic background: wild type).

Take EQNLEALAKSFF [BEM4 C-terminal 12 aa]: the protein stability index amounted to 0.734 ± 0.023 under setting [1] and 0.697 ± 0.029 (genetic background: wild type).

For EQSEQPEQHQDK [RPN10 C-terminal 12 aa], the protein stability index came to 0.697 ± 0.018 under setting [1] and 0.666 ± 0.01 (genetic background: wild type).

Consider ERKPLDFLRTAK [MRPL39 C-terminal 12 aa], for which the protein stability index reads like this: under setting [1], 0.6743 ± 0.0021; (genetic background: wild type) 0.659 ± 0.0088.

For the sequence ESAKQRRDKQKN [ATG38 C-terminal 12 aa], the protein stability index came out at 0.7096 ± 0.003 under setting [1] and 0.686 ± 0.02 (genetic background: wild type).

On to ESLQKNIKIETK [MUM3 C-terminal 12 aa], for which the protein stability index was 0.6981 ± 0.005 under setting [1] and 0.671 ± 0.051 (genetic background: wild type).

Turning to ESVSYLFTHAPV [PRS2 C-terminal 12 aa], the protein stability index runs as follows: under setting [1], 0.734 ± 0.0093; (genetic background: wild type) 0.711 ± 0.023.

For ESYRDDSIEAED [NCR1 C-terminal 12 aa], the protein stability index by setting is: under setting [1], 0.6933 ± 0.001; (genetic background: wild type) 0.7157 ± 0.0012.

As to “ETIAEEMDSVHT [YAL064W-B C-terminal 12 aa]”, the protein stability index came to 0.682 ± 0.012 under setting [1] and 0.662 ± 0.018 (genetic background: wild type).

As to ETNFWTAALEYE [THI20 C-terminal 12 aa], the protein stability index came to 0.723 ± 0.011 under setting [1] and 0.759 ± 0.034 (genetic background: wild type).

On to ETVGYEAYLENK [ADE2 C-terminal 12 aa], for which the protein stability index was found to be 0.685 ± 0.014 under setting [1] and 0.661 ± 0.013 (genetic background: wild type).

The sequence EVDIDSLLAKLN [RLP7 C-terminal 12 aa] displayed a protein stability index under setting [1] of 0.7114 ± 0.0065 and a protein stability index (genetic background: wild type) of 0.407 ± 0.023.

On to EVLEVAEKFKEE [DOT5 C-terminal 12 aa], for which the protein stability index was determined as 0.696 ± 0.011 under setting [1] and 0.683 ± 0.018 (genetic background: wild type).

As to EYHQEFLHKHVR [CWC15 C-terminal 12 aa], the protein stability index by setting is: under setting [1], 0.726 ± 0.035; (genetic background: wild type) 0.662 ± 0.015.

As to EYPWEKPKTLKF [SAM1 C-terminal 12 aa], the protein stability index reads like this: under setting [1], 0.7167 ± 0.00082; (genetic background: wild type) 0.6917 ± 0.0068.

As to FADTRPFDEIYR [ATP23 C-terminal 12 aa], the protein stability index was 0.73 ± 0.00073 under setting [1] and 0.727 ± 0.063 (genetic background: wild type).

With FAFVVVKQEFIH [BYE1 C-terminal 12 aa], the protein stability index under setting [1] came out at 0.521 ± 0.015 and the protein stability index (genetic background: wild type) was 0.519 ± 0.0072.

In the case of FASGKPIKKVKN [DYS1 C-terminal 12 aa], the protein stability index reads like this: under setting [1], 0.698 ± 0.0083; (genetic background: wild type) 0.706 ± 0.016.

Take “FCKEKVYSKLLV [YNL103W-A C-terminal 12 aa]”: the protein stability index by setting is: under setting [1], 0.648 ± 0.015; (genetic background: wild type) 0.559 ± 0.0084.

As to FDTLIVHHFSSE [KHA1 C-terminal 12 aa], the protein stability index stood at 0.733 ± 0.01 under setting [1] and 0.682 ± 0.021 (genetic background: wild type).

For the sequence FEVMKFVNGLKV [RFX1 C-terminal 12 aa], the protein stability index is 0.5484 ± 0.0045 under setting [1] and 0.5872 ± 0.0047 (genetic background: wild type).

Consider FEWEDDESDEIA [ATG7 C-terminal 12 aa], for which the protein stability index by setting is: under setting [1], 0.7397 ± 0.004; (genetic background: wild type) 0.706 ± 0.035.

Take FFRLGWSTWLHY [YOR029W C-terminal 12 aa]: the protein stability index is, setting by setting: under setting [1], 0.502 ± 0.01; (genetic background: wild type) 0.351 ± 0.0046.

With “FFRQWWDIIQSK [YMR316C-A C-terminal 12 aa]”, the protein stability index reads like this: under setting [1], 0.7 ± 0.025; (genetic background: wild type) 0.671 ± 0.012.

Turning to FGDNSKHKTDKI [BOI2 C-terminal 12 aa], the protein stability index came out at 0.712 ± 0.042 under setting [1] and 0.685 ± 0.019 (genetic background: wild type).

As for FIENVLKKRNMK [LIP5 C-terminal 12 aa], the protein stability index was determined as 0.7195 ± 0.0041 under setting [1] and 0.7 ± 0.041 (genetic background: wild type).

Take FIFYSILPTNVI [YPR123C C-terminal 12 aa]: the protein stability index stood at 0.594 ± 0.013 under setting [1] and 0.645 ± 0.029 (genetic background: wild type).

FIKKWAHYYKKF [SBE22 C-terminal 12 aa]: the protein stability index amounted to 0.711 ± 0.026 under setting [1] and 0.236 ± 0.0037 (genetic background: wild type).

Regarding FKGFLENIDSYT [AIM22 C-terminal 12 aa], the protein stability index runs as follows: under setting [1], 0.714 ± 0.021; (genetic background: wild type) 0.706 ± 0.0014.

With FKLHNETRCRNR [VPS71 C-terminal 12 aa], the protein stability index by setting is: under setting [1], 0.68 ± 0.017; (genetic background: wild type) 0.677 ± 0.007.

For the sequence FKVASIANAQVR [ARC1 C-terminal 12 aa], the protein stability index by setting is: under setting [1], 0.689 ± 0.0093; (genetic background: wild type) 0.696 ± 0.027.

The sequence FLFSCMLYKIDP [YML089C C-terminal 12 aa] registered a protein stability index under setting [1] of 0.669 ± 0.027 and a protein stability index (genetic background: wild type) of 0.664 ± 0.034.

With FLILVFVMKKNH [YDR018C C-terminal 12 aa], the protein stability index runs as follows: under setting [1], 0.287 ± 0.0071; (genetic background: wild type) 0.269 ± 0.017.

For FLKNFTNDTFDN [BCH1 C-terminal 12 aa], the protein stability index by setting is: under setting [1], 0.7055 ± 0.0035; (genetic background: wild type) 0.7462 ± 0.0044.

As for FPEKNIVNLKSA [CHA1 C-terminal 12 aa], the protein stability index by setting is: under setting [1], 0.6971 ± 0.0067; (genetic background: wild type) 0.1495 ± 0.0011.

As to “FPVTLWSKVILK [YHR073W-A C-terminal 12 aa]”, the protein stability index came to 0.569 ± 0.0092 under setting [1] and 0.559 ± 0.026 (genetic background: wild type).

As for FRHNRSNKKLGC [GEX1 C-terminal 12 aa], the protein stability index under setting [1] turned out to be 0.725 ± 0.025 and the protein stability index (genetic background: wild type) was 0.7365 ± 0.0018.

Consider FRPDEMNIVTKF [PRM15 C-terminal 12 aa], for which the protein stability index runs as follows: under setting [1], 0.68 ± 0.022; (genetic background: wild type) 0.753 ± 0.024.

Take FRTDEVYAAWRD [KAE1 C-terminal 12 aa]: the protein stability index under setting [1] stood at 0.6891 ± 0.0051 and the protein stability index (genetic background: wild type) was 0.6814 ± 0.0024.

Regarding FSIRSISKFIFT [YOR325W C-terminal 12 aa], the protein stability index runs as follows: under setting [1], 0.649 ± 0.014; (genetic background: wild type) 0.665 ± 0.051.

For FSNLLWFDQNFA [STB4 C-terminal 12 aa], the protein stability index reads like this: under setting [1], 0.742 ± 0.014; (genetic background: wild type) 0.786 ± 0.079.

FSTEYLGLICTY [YLR232W C-terminal 12 aa] showed a protein stability index under setting [1] of 0.49388 ± 0.0004 and a protein stability index (genetic background: wild type) of 0.5496 ± 0.0009.

For FTMSLAHCLMFS [YJL169W C-terminal 12 aa], the protein stability index runs as follows: under setting [1], 0.636 ± 0.016; (genetic background: wild type) 0.668 ± 0.066.

“FVAYTTLTFKKT [YMR001C-A C-terminal 12 aa]”: the protein stability index came out at 0.6649 ± 0.0001 under setting [1] and 0.67 ± 0.037 (genetic background: wild type).
